Measurements as given in patent publication US20230287080A1 (published 2023).
Residue numbers refer to the chain shown, from its start. Values belong to the binder of their own block, whether it stands above or below them.

Columns and labels:
[1] = molecular target: T1, NY-ESO-1 peptide on HLA-A*02:01 (human); experiment: multimer staining
T1 peptide: SLLMWITQC

[2] = molecular target: T1, NY-ESO-1 peptide on HLA-A*02:01; experiment: activation reporter or marker
Protocol: NY7 variant TCRs isolated by the work flow above were then functionally tested for potency and specificity. TCRs were expressed in Jurkat cells using a lentivirus vector, and TCR-expressing Jurkat cells were co-cultured with T2 cells and a varying dose of the NY-ESO-1 peptide. Activation was measured by luminescence using an NFAT-Luciferase reporter.

binding result [1]: recognises
B1: NY7JSY (TCR, V domains shown)
Valpha: QKEVEQNSGPLSVPEGAIASLNCTYSDRGSQSFFWYRQYSGKSPELIMFIYSNGDKEDGRFTAQLNKASQYVSLLIRDSQPSDSATYLCAVMRAGGFKTIFGAGTRLFVKA
Vbeta: DSGVTQTPKHLITATGQRVTLRCSPRSGDLSVYWYQQSLDQGLQFLIQYYNGEERAKGNILERFSAQQFPDLHSELNLSSLELGDSALYFCASSVVDGEQYFGPGTRLTVT

binding result [2]: recognises
B2: NY7 variant, Table A TCR ID 5 (TCR, V domains shown)
Valpha: B1 Valpha with G29W
Vbeta: B1 Vbeta
